Assay results published in paper PMC7496416 (Molecular microbiology, 2020).
pKd: −log10 of the molar value.

What was measured:
NasR (His10-MBP-NasR) = molecular target: T1, NasR (His10-MBP-NasR) (Klebsiella oxytoca, UniProt Q48468); experiment: fluorescence anisotropy of Cy3-labelled P1P2 nasF leader RNA, ion titration; assay type: biochemical; conditions: 8 uM protein; 50 mM HEPES pH 7.5, 100 mM KCl, 1 mM MgCl2; allosteric activator, NIT domain
T1 sequence (Q48468 1-396): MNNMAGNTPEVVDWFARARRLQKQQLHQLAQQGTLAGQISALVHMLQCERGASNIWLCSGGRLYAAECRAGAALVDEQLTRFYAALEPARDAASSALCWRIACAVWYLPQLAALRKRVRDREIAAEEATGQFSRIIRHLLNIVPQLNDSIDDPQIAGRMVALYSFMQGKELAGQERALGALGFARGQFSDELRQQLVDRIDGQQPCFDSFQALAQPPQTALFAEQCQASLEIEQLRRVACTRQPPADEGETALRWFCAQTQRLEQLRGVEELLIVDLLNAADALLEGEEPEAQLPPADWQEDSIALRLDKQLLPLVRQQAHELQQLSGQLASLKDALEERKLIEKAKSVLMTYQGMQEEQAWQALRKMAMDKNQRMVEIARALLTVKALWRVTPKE

[1] = tested on: NasR R340K (Klebsiella oxytoca); experiment: fluorescence anisotropy; conditions: 50 mM HEPES pH 7.5, 100 mM KCl, 1 mM MgCl2, with or without 1 mM KNO3; 50 nM Cy3-RNA final; 30 min in the dark, temperature not stated; Hill fit
[2] = tested on: NasR wild type (Klebsiella oxytoca); experiment: fluorescence anisotropy; conditions: 50 mM HEPES pH 7.5, 100 mM KCl, 1 mM MgCl2, with or without 1 mM KNO3; 50 nM Cy3-RNA final; 30 min in the dark, temperature not stated; Hill fit
[3] = tested on: NasR K347R (Klebsiella oxytoca); experiment: fluorescence anisotropy; conditions: 50 mM HEPES pH 7.5, 100 mM KCl, 1 mM MgCl2, with or without 1 mM KNO3; 50 nM Cy3-RNA final; 30 min in the dark, temperature not stated; Hill fit

Row | Molecule | activation of RNA binding (Hill fit) (NasR (His10-MBP-NasR)) | binding signal (fold weaker than wild type) [1] | pKd [2] | binding signal (fold weaker than wild type) [3]
1 | O=[N+]([O-])O [nitrate] | RNA binding activity was only observed in conditions containing nitrate or nitrite |  |  | 
2 | O=NO [nitrite] | RNA binding activity was only observed in conditions containing nitrate or nitrite |  |  | 
3 | P1P2 two-hairpin RNA |  | 10 | 6.00 | 10
4 | P2 single-hairpin RNA |  |  | 4.92 | 
